The assay concerns the target Rhs2 C-terminal toxin domain (Rhs2CT), His6 tag removed, as in the Rhs2CT-RhsI2-EF-Tu complex (Serratia marcescens Db10). The experiment in a line: SEC.

Here are results for two substances from publication doi:10.1101/2025.10.28.685041.

For the substance “E. coli elongation factor thermo-unstable (EF-Tu) (from UniProt P0CE47 1-394) (natural protein)”, the stoichiometry N was determined as 1.

“RhsI2 immunity protein, untagged (natural protein)” displayed a stoichiometry N of 1.
